Source: patent US20250289897A1 (Eli Lilly, published 2025)
One block for each binder: values may come before it.

Experiments:
human LEPR-ECD-His [1] = biological target: T1, human LEPR-ECD-His (human, UniProt P48357 22-839); experiment: SPR (Biacore T200), antibody captured on Protein A/G chip, His-tagged LEPR-ECD as analyte, 1:1 fit; mean n=3, SD 2.2E-9
T1 sequence: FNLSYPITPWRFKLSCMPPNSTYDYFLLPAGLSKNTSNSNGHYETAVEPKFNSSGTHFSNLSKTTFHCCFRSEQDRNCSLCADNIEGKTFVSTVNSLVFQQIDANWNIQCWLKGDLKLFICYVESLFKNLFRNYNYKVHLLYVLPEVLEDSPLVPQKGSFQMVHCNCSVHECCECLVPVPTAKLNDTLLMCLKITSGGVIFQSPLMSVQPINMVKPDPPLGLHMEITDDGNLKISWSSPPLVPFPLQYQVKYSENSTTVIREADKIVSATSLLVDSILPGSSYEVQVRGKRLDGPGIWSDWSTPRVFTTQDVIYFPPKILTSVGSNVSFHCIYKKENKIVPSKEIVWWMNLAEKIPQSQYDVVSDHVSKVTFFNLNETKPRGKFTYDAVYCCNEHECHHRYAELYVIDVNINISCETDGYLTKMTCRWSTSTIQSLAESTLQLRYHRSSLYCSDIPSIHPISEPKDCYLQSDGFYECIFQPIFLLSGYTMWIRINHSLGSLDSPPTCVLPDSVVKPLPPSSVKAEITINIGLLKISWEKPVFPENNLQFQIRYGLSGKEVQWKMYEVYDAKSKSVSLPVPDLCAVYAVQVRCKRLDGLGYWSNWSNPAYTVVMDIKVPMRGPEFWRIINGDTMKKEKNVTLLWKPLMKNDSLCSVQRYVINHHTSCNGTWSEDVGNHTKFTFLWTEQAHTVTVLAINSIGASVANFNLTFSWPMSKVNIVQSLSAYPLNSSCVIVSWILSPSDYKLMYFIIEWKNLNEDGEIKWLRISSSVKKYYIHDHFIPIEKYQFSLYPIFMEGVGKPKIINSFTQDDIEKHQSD
Experimental: (§1) His-tagged ECDs were expressed and purified for each species and used for affinity analysis. A Protein A/G chip (Xantec, Cat #PAGHC200M) was utilized in this experiment with HBS-EP +0.01% BSA as running buffer. Antibodies were diluted to 1 μg/mL in running buffer and captured to a single flow cell on the chip surface. Each species of LEPR-ECD was diluted to 1000 nM in running buffer followed by 2-fold serial dilution. Each ligand concentration was injected over all flow cells at 100 L/min for 150 seconds followed by a 600 second dissociation phase. Regeneration was performed by injecting 10 mM glycine pH1.5 for 30 seconds at 10 μL/min. Data were analyzed in Biacore T200 Evaluation Software 3.1 by flow-cell 1 reference subtraction along with 0 nM blank subtraction. Data were fit globally using a “1:1 Binding” binding model to determine the on-rate (kₐ) and off-rate (kd) for each ligand. The affinity (KD) was calculated from the binding kinetics according to the relationship KD=kₐ/kd. Data reported as mean±standard deviation of experimental replicates.

canine LEPR-ECD-His [2] = biological target: T2, canine LEPR-ECD-His (canine); experiment: SPR (Biacore T200), antibody captured on Protein A/G chip, His-tagged LEPR-ECD as analyte; summary sentence of Table 3
T2 chain: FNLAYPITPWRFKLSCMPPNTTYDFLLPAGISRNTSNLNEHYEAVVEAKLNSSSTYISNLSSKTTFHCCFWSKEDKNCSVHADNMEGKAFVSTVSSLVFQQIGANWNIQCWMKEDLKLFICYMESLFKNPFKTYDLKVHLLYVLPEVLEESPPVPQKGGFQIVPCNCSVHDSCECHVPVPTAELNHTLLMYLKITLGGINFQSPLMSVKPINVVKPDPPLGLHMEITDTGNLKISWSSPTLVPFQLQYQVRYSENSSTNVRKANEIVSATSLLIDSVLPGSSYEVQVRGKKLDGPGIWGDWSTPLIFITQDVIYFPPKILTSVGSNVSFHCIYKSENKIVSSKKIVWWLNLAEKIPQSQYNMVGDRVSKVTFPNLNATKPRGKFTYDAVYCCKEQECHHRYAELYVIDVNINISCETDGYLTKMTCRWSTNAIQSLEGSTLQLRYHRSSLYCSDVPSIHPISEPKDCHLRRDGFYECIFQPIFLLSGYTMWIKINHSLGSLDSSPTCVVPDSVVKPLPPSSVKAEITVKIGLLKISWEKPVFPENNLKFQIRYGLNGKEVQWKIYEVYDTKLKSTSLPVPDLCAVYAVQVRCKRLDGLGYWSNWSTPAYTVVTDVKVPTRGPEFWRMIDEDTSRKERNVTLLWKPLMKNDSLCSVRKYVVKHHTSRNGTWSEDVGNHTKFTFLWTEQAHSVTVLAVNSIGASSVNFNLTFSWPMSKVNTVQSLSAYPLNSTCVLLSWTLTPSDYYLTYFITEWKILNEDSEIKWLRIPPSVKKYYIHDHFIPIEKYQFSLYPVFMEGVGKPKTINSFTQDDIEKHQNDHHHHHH
Experimental: as §1

human LEPR-ECD-His [3] = biological target: T1, human LEPR-ECD-His; experiment: SPR (Biacore T200), antibody captured on Protein A/G chip, His-tagged LEPR-ECD as analyte, 1:1 fit; mean n=3, SD 7.1E-9
Experimental: as §1

CYNO LEPR-ECD-His = biological target: T3, CYNO LEPR-ECD-His (cynomolgus monkey, UniProt Q9MYL0 22-837 (rhesus entry)); experiment: SPR (Biacore T200), antibody captured on Protein A/G chip, His-tagged LEPR-ECD as analyte, 1:1 fit; mean n=4, SD 2.6E-8
T3 construct: also called cynomolgus monkey LEPR
T3 sequence: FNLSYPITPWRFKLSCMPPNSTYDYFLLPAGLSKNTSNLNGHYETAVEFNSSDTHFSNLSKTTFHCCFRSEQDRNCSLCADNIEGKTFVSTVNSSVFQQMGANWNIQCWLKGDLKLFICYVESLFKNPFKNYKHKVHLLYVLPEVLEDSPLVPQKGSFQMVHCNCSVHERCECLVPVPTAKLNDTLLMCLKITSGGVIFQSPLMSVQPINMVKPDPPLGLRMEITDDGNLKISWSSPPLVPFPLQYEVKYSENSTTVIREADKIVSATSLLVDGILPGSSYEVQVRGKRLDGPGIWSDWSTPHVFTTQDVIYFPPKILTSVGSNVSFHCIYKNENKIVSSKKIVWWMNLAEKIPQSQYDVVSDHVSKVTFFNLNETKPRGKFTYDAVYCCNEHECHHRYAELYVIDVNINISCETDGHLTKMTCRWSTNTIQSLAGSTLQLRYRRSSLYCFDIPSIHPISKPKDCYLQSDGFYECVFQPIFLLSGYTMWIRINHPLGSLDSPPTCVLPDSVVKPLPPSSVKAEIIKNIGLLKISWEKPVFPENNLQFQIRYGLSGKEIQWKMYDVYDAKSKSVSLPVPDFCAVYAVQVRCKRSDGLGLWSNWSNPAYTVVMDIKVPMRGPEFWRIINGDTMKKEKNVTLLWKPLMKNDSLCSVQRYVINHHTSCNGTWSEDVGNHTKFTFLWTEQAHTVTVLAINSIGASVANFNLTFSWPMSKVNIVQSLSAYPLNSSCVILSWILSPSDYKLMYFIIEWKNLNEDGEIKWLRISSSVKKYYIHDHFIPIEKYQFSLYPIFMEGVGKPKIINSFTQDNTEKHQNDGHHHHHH
Experimental: as §1

canine LEPR-ECD-His [4] = biological target: T2, canine LEPR-ECD-His; experiment: SPR (Biacore T200), antibody captured on Protein A/G chip, His-tagged LEPR-ECD as analyte, 1:1 fit; mean n=2, SD 1.9E-8
Experimental: as §1

human LEPR-ECD-His [5] = biological target: T1, human LEPR-ECD-His; experiment: SPR (Biacore T200), antibody captured on Protein A/G chip, His-tagged LEPR-ECD as analyte, 1:1 fit; mean n=3, SD 6.8E-9
Experimental: as §1

Kd (human LEPR-ECD-His [1]): 0.02 µM
B1: Antibody A (antibody, human IgG1, kappa, L234A L235A)
heavy: EVQLLESGGGLVQPGGSLRLSCAASGFTFSSFAMSWVRQAPGKGLEWVSAISGSGGSTYSADSVRGRFTISRDNSKNTLYLQMNSLRAEDTAVYYCAKDQGDWDFLFDYWGQGTLVTVSSASTKGPSVFPLAPSSKSTSGGTAALGCLVKDYFPEPVTVSWNSGALTSGVHTFPAVLQSSGLYSLSSVVTVPSSSLGTQTYICNVNHKPSNTKVDKRVEPKSCDKTHTCPPCPAPEAAGGPSVFLFPPKPKDTLYITREPEVTCVVVSVSHEDPEVKFNWYVDGVEVHNAKTKPREEQYNSTYRVVSVLTVLHQDWLNGKEYKCKVSNKALPAPIEKTISKAKGQPREPQVYTLPPSREEMTKNQVSLTCLVKGFYPSDIAVEWESNGQPENNYKTTPPVLDSDGSFFLYSKLTVDKSRWQQGNVFSCSVMHEALHNHYTQKSLSLSPGK
light: DIQMTQSPSFLSASVGDRVTITCRASQGISSSLAWYQQKPGKAPKLLIYTASTLQSGVPSRFSGSGSGTEFTLTISSLQPEDFATYYCQQLIYYPFTFGQGTKVEIKRTVAAPSVFIFPPSDEQLKSGTASVVCLLNNFYPREAKVQWKVDNALQSGNSQESVTEQDSKDSTYSLSSTLTLSKADYEKHKVYACEVTHQGLSSPVTKSFNRGEC
notes: IgG1 mAb

binding result (canine LEPR-ECD-His [2]): binds | Kd (human LEPR-ECD-His [3]): 0.026 µM | Kd (CYNO LEPR-ECD-His): 0.047 µM
B2: Antibody C (antibody, human IgG1, kappa, L234A L235A, V domains shown)
VH: EVQLLESGGGLVQPGGSLRLSCAASGFTFSSFAMSWVRQAPGKGLEWVSAISGSGGSTYSADSVRGRFTISRDNSKNTLYLQMNSLRAEDTAVYYCAKDQGDWDFLFDYWGQGTLVTVSS
VL: DIQMTQSPSFLSASVGDRVTITCRASQGISSSLAWYQQKPGKAPKLLIYTASTLQSGVPSRFSGSGSGTEFTLTISSLQPEDFATYYCQQLNYYPFSFGQGTKVEIKR

Kd (canine LEPR-ECD-His [4]): 0.33 µM | Kd (human LEPR-ECD-His [5]): 0.022 µM
B3: Antibody B (antibody, human IgG1, kappa, L234A L235A, V domains shown)
VH: EVQLLESGGGLVQPGGSLRLSCAASGFTFSSFAMSWVRQAPGKGLEWVSAISGSGGSTYSADSVRGRFTISRDNSKNTLYLQMNSLRAEDTAVYYCAKDQGDWDFLFDYWGQGTLVTVSS
VL: DIQMTQSPSFLSASVGDRVTITCRVSQGISSSLAWYQQKPGKAPKLLIYTASTLQSGVPSRFSGSGSGTEFTLTISSLQPEDFATYYCQQLNYYPFTFGQGTKVEIKR
